From patent publication US20220235138A1, “CAR-T CELLS TARGETING IL-1RAP AND THEIR USE IN ACUTE MYELOID LEUKEMIA (AML)” (ETABLISSEMENT FRANCAIS DU SANG, priority 2019, published 2022) come the findings set out here.

In assay [1] the target is T1, recombinant IL-1RAP biotinylated protein (Homo sapiens, UniProt Q9NPH3).
T1 sequence (Q9NPH3 21-359 limits assumed): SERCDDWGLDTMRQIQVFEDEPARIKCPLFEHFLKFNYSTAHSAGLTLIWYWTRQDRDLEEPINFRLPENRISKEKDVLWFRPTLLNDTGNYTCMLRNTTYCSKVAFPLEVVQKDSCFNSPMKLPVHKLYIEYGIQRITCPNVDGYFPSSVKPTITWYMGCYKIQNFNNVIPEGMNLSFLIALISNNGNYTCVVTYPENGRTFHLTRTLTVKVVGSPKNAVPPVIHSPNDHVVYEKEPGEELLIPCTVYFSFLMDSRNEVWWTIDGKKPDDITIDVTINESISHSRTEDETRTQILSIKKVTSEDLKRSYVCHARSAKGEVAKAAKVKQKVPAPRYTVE
Description: Flow cytometry detection of cell surface CAR with biotinylated recombinant IL-1RAP. Type of assay: binding. To be noted: for amount of recombinant IL-1RAP protein required for recruiting maximum of cells: single experiment. The protocol: CEM cell line or primary T cells were transduced either with Mock or CAR IL-1RAP. Cells were then incubated in presence of increasing amount of recombinant IL-1RAP labelled with biotin. Staining was performed with an anti-biotin fluorescent antibody and analyzed by flow cytometry. Percentage of Biotin+/CD19+ CEM or T-cells plotted against amount of labelled biotin recombinant protein. Dot plots of cytometry analyze were provided for representative staining, including maximum. Untransduced T cells (C0) or Mock T cells were used as control.
Additional analysis using serial dilution of biotinylated IL-1RAP protein (from 20 ng to 2.4 pg/ml) and FACS analysis allow to detect either IL-1RAP CAR transduced CEM T cell line or primary T-cells.

The test system of assay [2] is iCASP9/AP1903 suicide system. Nature of the assay: Optical microscopy of transduced 293T cells after CID AP1903 exposure. The assay is classed as cell-based, human. To be noted: CID AP1903 20 nM, 24 h (10 nM).
Where [3] appears, read: transduced primary T-cells (GMTC).

B1: IL-1RAP CAR: chimeric antigen receptor: #E3C3 scFv in frame with CD28-4.1BB-CD3z signaling chain; tested in transduced CEM, primary T or 293T cells (protein)
scFv: QVQLQQPGAELMMPGASVKVSCEASGYTFTDSWMHWVKQRPGQGLEWIGAIDPSDSYTTYNQKFTGKATLSVDESSNTAYMQLSSLTSEDSAVYYCARYYSGSNYISPFPYWGQGTLVTVSAGGSGGGGSGGGGSVDMESQIQVFVFVFLWLSGVDGDIVMTQSHKFMSTSVGDRVTITCKASLDVSTAVAWYQQKPGQSPKLLIYSASYRYTGVPDRFTGSGSGTDFTFTISSVQAEDLAVYYCQQHYSPPFTFGSGTNLEIK
modifications: left off: small tags and cut ends
notes: chimeric antigen receptor: #E3C3 scFv in frame with CD28-4.1BB-CD3z signaling chain; tested in transduced CEM, primary T or 293T cells
Regarding B1, in assay [1], the “CAR recognition and binding of IL-1RAP protein” value was “CAR specific recognition and binding of IL-1RAP protein”. Moreover, in assay [1] (transduced CEM T cell line), the “maximum percentage of Biotin+/CD19+ cells” value was 85.8% and the “amount of recombinant IL-1RAP protein required for recruiting maximum of cells” value was 1.25 ng. Also, in assay [1] (setting [3]), the “maximum percentage of Biotin+/CD19+ cells” value was 68.5% and the “amount of recombinant IL-1RAP protein required for recruiting maximum of cells” value is recorded as 0.15 ng. The “sensitivity of transduced 293T cell culture to CID” value in assay [2] is “sensitive to the CID”.
